# Measured values from patent publication US5981488.
# Molecular target: rat GLP-1 receptor (rat) (UniProt P32301)
row,Substance,"Percent receptor affinities (cAMP production by the membrane preparation, fluorescent tracer-immuno assay) [%]"
1,Thr-8 GLP-1(7-37)OH (peptide),2.8
2,Met-8 GLP-1(7-36)NH2 (peptide),16.6
